# Measurements reported in paper doi:10.1101/2025.05.13.653872, “A novel non-catalytic function of PA2803-encoded PcrP contributes to polymyxin B resistance in P. aeruginosa and redefines the functional role of the PA2803 subfamily” (bioRxiv, 2025).
# B1: 6XHis-PcrP (PA2803), recombinant, purified (natural protein)
# chain: MPSSDQLPRFTALLFGLSGGLVDFGARTLSLALLRSHPHSPAEHLRDASLLPFAEAQSFLLRRKPNKSERQRLEQALDEAAGEQAEAIAGAVALLESLDEQRIPYAWQDELPESVCQRLAAPLGRANALIPLAGARPWPAPDGCWQALARLGIERLDGCVLVSAQPRQLQAGLNAGLWTIGLAASGPSCGLSPADWDALGHTERDRLRADATLELYRLGVHSVIDHLGELQPCLHDLAVRRLKGEKP
# notes: PcrP (PA2803), P. aeruginosa PAO1; No tag cleavage step is described; The reverse primer carries the stop codon, so the His tag of the vector should be N-terminal; also called 6XHis-PA2803; pAAK001; source: E. coli BL21(DE3), purified (Ni-NTA)
# Biological target: the molecule itself
# Experiment: cross-linking; 50 μM purified PcrP with 0.02, 0.05, 0.1 and 0.2% glutaraldehyde for 2 min in 50 mM NaCl, 1% glycerol, 20 mM HEPES pH 7.8; stopped with Tris-HCl pH 8.0; 12% SDS-PAGE, Coomassie
protein,measurement,value
B1,stoichiometry N,2
